From patent publication US8603949B2, “Libraries of optimized cytochrome P450 enzymes and the optimized P450 enzymes” (California Institute of Technology, priority 2003, dated 2013)

B1: Chimera F37202: chimera of the CYP102A1/A2/A3 seven-crossover library (protein)
chain: KQASAIPQPKTYGPLKNLPHLEKEQLSQSLWRIADELGPIFRFDFPGVSSVFVSGHNLVAEVCDEERFDKSIEGALEKVRAFSGDGLATSWTHEPNWRKAHNILMPTFSQRAMKDYHEKMVDIATQLIQKWSRLNPNEEIDVADDMTRLTLDTIGLCGFNYRFNSFYRDQPHPFITSMVRALDEAMNKLQRANPDDPAYDENKRQFQEDIKVMNDLVDRMIAERKANPDENIKDLLSLMLYAKDPVTGETLDDENIRYQIITFLIAGHETTSGLLSFAIYCLLTHPEKLKKAQEEADRVLTDDTPEYKQIQQLKYIRMVLNETLRLYPTAPAFSLYAKEDTVLGGEYPISKGQPVTVLIPKLHRDQNAWGPDAEDFRPERFEDPSSIPHHAYKPFGNGQRACIGMQFALQEATMVLGLVLKHFELINHTGYELKIKEALTIKPDDFKITVKPRKTAAINVQRKEQA
modifications: Chimeric Cytochrome P450 heme group polypeptide sequence from CYP102A1 (Bacillus megaterium); CYP102A2 (Bacillus subtilis) and CYP102A3 (Bacillus subtilis)
notes: chimera of the CYP102A1/A2/A3 seven-crossover library
B2: Chimera F37233: chimera of the CYP102A1/A2/A3 seven-crossover library (protein)
chain: KQASAIPQPKTYGPLKNLPHLEKEQLSQSLWRIADELGPIFRFDFPGVSSVFVSGHNLVAEVCDEKRFDKNLGKGLQKVREFGGDGLATSWTHEPNWQKAHRILLPSFSQKAMKGYHSMMLDIAVQLIQKWARLNPNEAVDVPGDMTRLTLDTIGLCGFNYRFNSYYRDQPHPFITSMVRALDEAMNKLQRANPDDPAYDENKRQFQEDIKVMNDLVDSIIAERRANGDQDEKDLLARMLNVEDPETGEKLDDENIRFQIITFLIAGHETTSGLLSFATYFLLKHPDKLKKAYEEVDRVLTDAAPTYKQVLELTYIRMILNESLRLWPTAPAFSLYAKEDTVLGGEYPLEKGDELMVLIPQLHRDKTIWGDDVEEFRPERFENPSAIPQHAFKPFGNGQRACIGQQFALQEATMVLGLVLKHFELINHTGYELKIKEALTIKPDDFKITVKPRKTAAINVQRKEQA
modifications: Chimeric Cytochrome P450 heme group polypeptide sequence from CYP102A1 (Bacillus megaterium); CYP102A2 (Bacillus subtilis) and CYP102A3 (Bacillus subtilis)
notes: as for B1
B3: Chimera F3748: chimera of the CYP102A1/A2/A3 seven-crossover library (protein)
chain: KQASAIPQPKTYGPLKNLPHLEKEQLSQSLWRIADELGPIFRFDFPGVSSVFVSGHNLVAEVCDEERFDKSIEGALEKVRAFSGDGLATSWTHEPNWRKAHNILMPTFSQRAMKDYHEKMVDIATQLIQKWSRLNPNEEIDVADDMTRLTLDTIGLCGFNYRFNSFYRDQPHPFITSMVRALDEAMNKLQRANPDDPAYDENKRQFQEDIKVMNDLVDRMIAERKANPDENIKDLLSLMLYAKDPVTGETLDDENIRYQIITFLIAGHETTSGLLSFATYFLLKHPDKLKKAYEEVDRVLTDAAPTYKQVLELTYIRMILNESLRLWPTAPAFSLYAKEDTVLGGEYPISKGQPVTVLIPKLHRDQNAWGPDAEDFRPERFEDPSSIPHHAYKPFGNGQRACIGMQFALQEATMVLGLVLKHFELINHTGYELKIKEALTIKPDDFKITVKPRKTAAINVQRKEQA
modifications: Chimeric Cytochrome P450 heme group polypeptide sequence from CYP102A1 (Bacillus megaterium); CYP102A2 (Bacillus subtilis) and CYP102A3 (Bacillus subtilis)
notes: as for B1

Assay: Library plate screen on five test substrates (4-AAP, 12-pNCA)
Format: biochemical
Settings: seven-crossover library, cell lysate, 20 mM H2O2
Description: These library plates were replicated and grown in 96 deep-well plates in 900 μL of LB media with 100 μg/ml ampicillin overnight at 30° C. and 250 rpm. 150 μL of this was then transferred to 850 μL of induction media (TB-media with final concentrations of 100 μg/ml ampicillin, 25 μg/ml thiamine, 0.5 mM δ-aminolevulinic acid and 0.6 mM IPTG). These were grown for 20-24 hours at 25° C. and 190 rpm, harvested by centrifugation at 5000×g for 8 minutes and frozen at -20° C. for at least 24 hours. Cells were resuspended using a pipetting robot (Multimek 96, Beckman) and lysed in 400 μL of Epps or Tris buffer (100 mM, pH 8.2) containing 0.8 mg/ml lysozyme and 2 units/mL DNaseI for 1 hour at 37° C. Plates were then spun for 8 minutes at 5000×g and 4° C. to pellet cell debris. 80 μL of lysate was transferred into 4 separate 96 well plates for each library plate. […] On one plate, high -throughput carbon monoxide spectroscopy was done in order to assess relative amounts of P450 (Otey, C. R. High-throughput carbon monoxide binding assay for cytochromes P450. In Directed Enzyme Evolution: Screening and Selection Methods, F. H. Arnold and […]. 137-139 (2003)) with 0.1 M sodium hydrosulfite being used in place of 0.4 M. The other three plates were used to assay activity on different substrates. Examples of assays that have been or could be used include the 4-AAP (Otey, C. R., and Joern, J. M. High-throughput screen for aromatic hydroxylation. In Directed Enzyme Evolution: Screening and Selection Methods, F. H. Arnold and […]. 141-148 (2003)), 12-pNCA (Schwaneberg et al., Anal. Biochem., 269:359-366 (1999), NBP assay ([…], et al., J Biomol Screen, 9:141-146 (2004)), 7-ethoxyresorufin (Sieber et al., Nat Biotechnol., 19:456-460 (2001)), vivid substrate assays (Marks et al., Assay Drug Dev Technol 1, 73-81 (2002); Marks et al., AAPS PharmSci 5, E18 (2003)), and purpald assays (Peters et al., J Am Chem Soc 125:13442-13450 (2003)). Since the heme domains were being used, the hydrogen peroxide was used to drive the reactions via the peroxide shunt (Cirino, P. C., and Arnold, F. H., Advanced Synthesis & Catalysis 344, 932-937 (2002)). The 4-AAP assay detects phenol-like compounds and consists of the addition of 40 μL of a 3.5× substrate solution (containing substrate concentrations dependent for each substrate) to 80 μL of lysate. […] Then a 7×(140 mM) H2O2 hydrogen peroxide solution was added resulting in a final concentration of 20 mM hydrogen peroxide. The reaction was mixed and left at room temperature without shaking for two hours and then quenched with 140 μL of 0.1 m NaOH and 4 M Urea. 38 μL of 0.6% 4-aminoantipyrine was added followed by blanking of the 96-well plate reader at 500 nm. 38 μL of 0.6% potassium persulfate was added and after 20 minutes the A500 was read. […]

Molecule	activity on test substrates incl. novel substrates (diphenyl ether, allyloxy-benzene)
B1	activity that is novel
B2	activity that is novel
B3	activity that is novel
